No end group written: not given here.
T1: IL-15Rα on CTLL-2 cells (murine (CTLL-2 murine cell line), UniProt Q60819 33-263)
T1 sequence (looked up): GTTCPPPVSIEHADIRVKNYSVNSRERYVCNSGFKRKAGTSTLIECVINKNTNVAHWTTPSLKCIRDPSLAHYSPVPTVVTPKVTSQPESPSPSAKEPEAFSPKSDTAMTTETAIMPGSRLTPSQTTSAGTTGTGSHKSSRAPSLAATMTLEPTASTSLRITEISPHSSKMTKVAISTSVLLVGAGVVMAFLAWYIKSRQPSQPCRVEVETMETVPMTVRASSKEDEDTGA


Target: T1, IL-15Rα on CTLL-2 cells
Assay: cell-based or functional assay

Q: With KVTAMTCFLL-NH2 [peptide SEQ ID No. 12 (Lys-Thr mutant, monomer)] as the binder, how does the “fold inhibitory activity against the original peptide, CTLL-2 proliferation assay” value read?
A: Its value is 5 fold.

Q: With KVTAMTCFLL-NH2 (also: homodimer, two monomers linked through the free Cys) [peptide dimer of SEQ ID No. 12 linked through the free Cys] as the binder, how does the “fold inhibitory activity against the original peptide, CTLL-2 proliferation assay” value read?
A: The value was 15 fold.

Q: What about the “inhibitory concentration 50 (IC50), IL-15-dependent proliferation” value of the same binder?
A: Its value is 8 µM.

Target: T1, IL-15Rα on CTLL-2 cells
Assay: cell-based or functional assay
Remark: another data set of the same source

Q: With KVTAMTCFLL-NH2 [peptide SEQ ID No. 12 (Lys-Thr mutant, monomer)] as the binder, how does the “IC50 (µM), IL-15-induced (300 pg/mL) proliferation of the CTLL-2 cell line, MTT” value read?
A: Its value is 24.6 µM.

Q: KVTAMKCALL-NH2 [mutant Phe-Ala (SEQ ID No. 4)] was tested. Which “IC50 (µM), IL-15-induced proliferation of the CTLL-2 cell line, MTT; '0' stands for loss of the inhibitory effect” value (from here on “IC50 (µM) … for loss of the inhibitory effect”) did it give?
A: The value was 0 µM.

Q: Which “IC50 (µM), IL-15-induced (300 pg/mL) proliferation of the CTLL-2 cell line, MTT” value does the source give for KVTAAKCFLL-NH2 here?
A: The value was 130 µM.

Q: How did the “IC50 (µM), IL-15-induced (300 pg/mL) proliferation of the CTLL-2 cell line, MTT” value turn out when KVTAMTCYLL-NH2 was run?
A: The value was 57.7 µM.

Q: How did the “IC50 (µM), IL-15-induced (300 pg/mL) proliferation of the CTLL-2 cell line, MTT” value turn out when KVTAMKCFAL-NH2 was run?
A: The value was 200 µM.

Q: With KATAMKCFLL-NH2 as the binder, how does the “IC50 (µM), IL-15-induced (300 pg/mL) proliferation of the CTLL-2 cell line, MTT” value read?
A: The value was 130 µM.

Q: KVTAMKAFLL-NH2 [Cys-Ala mutant (SEQ ID No. 5)] was tested. Which “IC50 (µM) … for loss of the inhibitory effect” value did it give?
A: The value was 0 µM.

Q: With KVTAMKCFLA-NH2 as the binder, how does the “IC50 (µM), IL-15-induced (300 pg/mL) proliferation of the CTLL-2 cell line, MTT” value read?
A: The value was 260 µM.

Q: For KVTAMECFLL-NH2, which “IC50 (µM) … for loss of the inhibitory effect” value is on record?
A: Its value is 0 µM.

Q: How did the “IC50 (µM), IL-15-induced (300 pg/mL) proliferation of the CTLL-2 cell line, MTT” value turn out when KVTAMKCFLL-NH2 [KVTAMKCFLL (IL-15 antagonistic peptide of patent application No. WO2006/029578)] was run?
A: Its value is 130 µM.

Q: For KVAAMKCFLL-NH2, which “IC50 (µM), IL-15-induced (300 pg/mL) proliferation of the CTLL-2 cell line, MTT” value is on record?
A: The value was 130 µM.

Q: KVTAMKSFLL-NH2 was tested. Which “IC50 (µM) … for loss of the inhibitory effect” value did it give?
A: The value was 0 µM.

— patent US20110251140A1 (CENTRO DE INGENIERIA GENETICA Y BIOTECNOLOGIA, published 2011)
